Results published in the nanobody polyreactivity screen of Harvey et al. (2022).

Assay: yeast display, Sf9 membrane polyspecificity reagent, FACS + sequencing; frameworks hold sequencing errors
In short: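 Nanobodies from a synthetic yeast display library (Saccharomyces cerevisiae BJ5465), induced 36–48 hours with galactose, were stained 1 hour at 4 °C with 10% biotinylated, detergent-solubilized Sf9 membrane reagent, enriched on streptavidin microbeads, then FACS-sorted. Anti-HA (expression) and streptavidin (reagent binding) fluorescence set low and high (top ~1%) gates. Polyreactivity labels come from the gate of origin. Genes were colony-PCR amplified, MiSeq 2 × 250 sequenced and filtered by CDR length.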

| Sequence | polyreactivity (PSR sort gate) |
| --- | --- |
| QVQLVETGGGLVQAGGSLRLSCAASGSIFVYYAMRWYRQAPGKERELVAAITIGASTDYADSVKGRFTISRDNAKNTVYLQMISVKPEDTAVYNCAADLYYGDYRTLPKADEYDYWGQGTQVTVSS | low polyreactivity |
| QVQLVESGGGLVQAGGSLRISCAASGITFFRNAMGWYRQAPGKERELVATITKSGGSTYYADSVKGRFTISRDNAKNTVYLQMNSLKPEDTAVYDCAAVRRYPVKYVAYDYWGQGTQVTVSS | low polyreactivity |
| QVQLVESGVGLVQAGGSLRLSWAATGSIFPYNDLGWYRKAPGKERELVAAISDSAGTTYYADSVKGRFTISRDNAKNTVDLQMNSLKPEDTAGYYCAADSWDSQVVSYEYWGQGTQVTLSS | low polyreactivity |
| QVQLVESGGGLVQEGGSLRLSCAASGRIFPYYAMGWYRQAPGKERELVAAITSGSRTYYADSVKGRFTISRDNAKNTVYLQMNSLKPEHTAVYYCNAVGGNSAYVYWGQGTQVTVSS | high polyreactivity |
| QVQLVESGGGLVQAGGSLRLSCAASGSTFFPNAMGWYRQAPGKERELVAAIRWRGGTYYADSVKVRFTISRDNAKNTVYLQMNSLKPEDTAVYYCATSVKPSYDYWGQGTQVTVSS | low polyreactivity |
| QVQLVESGGGLVQAGGSLRLSCAASGSIFTQYAMGWYREATGKERELVAAITSGGSTYADSVKGRFTISRDNANNTVYLQMNSLKPEDTAVYYCATQYSYRGVTFYYWGQGTQVTVSS | low polyreactivity |
| QVQLVESGGGLVQAGGSLRLSCAASGRIFGTNAMGWYRQAPRKERELVATITRGGGNTYYADSVKGRFTISRDNAKNTVYLQLNSLKPEDTAVYYCAAYDSVQKYWILGFDYWGQGTQVTVSS | low polyreactivity |
| QVQLLESGGGLVQAGGSLRLSCAASGRTFWYYVMGWYRQAPGKERELFAAITSSGGSTYYADSVKGRFTISRDNAKNSVYLQMNSLKAEDTSVYYCGAAAYTRGYYWGQGTEVTVSS | low polyreactivity |
| QVQLVESGGGLVQAGGSLRLSCAATGRIFYYYTMGWYRQAPGKERELVAAISWGGVNTDYADSVKGRFTISRDNAKNTVYLQMNSLKPEDTAVYYCAAGRWSVGTYDYWGQGTQVTVSS | low polyreactivity |
| QVQLVESGGGLVQAGGSLRLSCAASGSTFDIYAMGWYRQAPGKERELVAVISGGDGSTYYADSVKGRFTISRDNAKNTVYLQMNSLKPEDTAVYYCAADYISPGYCDGEYDCWGQGTQVTVSS | low polyreactivity |
| QVQLVESGGGLVQSGGSLRLSCAASGSFYYFYSMGWYRQAPGKEREVVAANTDGGSTHYAESVKGRFTISRDNAKNTVYLQMNSMKPEDTAVYSCAAQWHYYLGSGYQYDYWGQGTQVTVSS | low polyreactivity |
| QVQLVESGGGLVQAGGSLRLSSAASGSTFVQNAIGWYRQAPGKERELVAAISRTGGSTYSAHSVKGRFTIYRDNAKNTVYLEMNSLKPEDTAVYYFAKRPPHYSWPTFIEFGSWGLGTQVTVSS | high polyreactivity |
| QVQLVESGGGIVQAGGSLRLSCAASGYTIDSYGMGWYRQAPGKERELVAAIDWSGGSTYYADSVKGRFTISRDNAKNTVYLQMNSLKPEDTAVYYCAARRGLRLFAYRHGYWGQGTQVTVSS | low polyreactivity |
| QVQLVESGGGLVQAGGSLRLSCAASGSIFGTYAMGWYRQAPGKEREFVAAISWADGSTYYADSVKGRFTISRDNAKNTVYLQMNSLNPEDTAVFYCAVRRVGSIYIDRYIYVVADYDYWGQGTQVTVSS | low polyreactivity |
| QVQLEESGGGLVQAGGSLRLSCAASGSIFYEYAMGLYRTAPGKERVFVAAISSRGGYTNYADSVKGRFTISRDNAKNTVYLQMNSLKPEDTAVYYWAGYGGLQSRYYYWGLGTQVTVSS | high polyreactivity |
| QDQLEESGGGLVQAGGSLRLSCAASVRTFRDNAMGWSRQATGKQRQLVAAITQSGASTFYADSVKGRFTISRDNAKNSVYLQMNSLKADDTAVYYCAALRRQGRYVYGYWGQGTQVTVSS | high polyreactivity |

| Sequence | polyreactivity (PSR sort gate) |
| --- | --- |
| QVQLVESGGGLVQAGGSLRFSCAASGSTIPPNAMGWYRQAPGKERELVAAINSTGSTNYADSVKGRFTISRDNAKNTVSLQMNSLQPEDTAVYYCAAEGLPYVRVFDFVSRYDYWGQGTQVTVSS | low polyreactivity |
| QVQLVESGGGLVQAGGSLRLSCAASGFTFGTYAMGWYRQAPGKERELVARITSGGRTNYADSVKGRFTISRDNAKNTVYLQMNSLKPEDTAVYYCNAVNGYYWGSRFDYWGQGTQVTVSS | high polyreactivity |
| QVQLVESGGGLVQAGGSLRLSCAASGRTFSYYTMGWYRQATGKERELVARISNRGTNTYYADSVKGRFTISRDNAKITVYLPMNSLKQEDTAVYYCDKFYYTSIVGYDSWGQGTQVTVSS | low polyreactivity |
| QVQLVESGGGLVQAGGSLRLSCAASGSIFYRYTMGWYRQAPVTERELVAVISRRGGSTYYADSVKGRFTISRDNEKNTVYLQMNRLKPEDTAVYYCAVPQYRTSVRQGNTLWDDYWGQGTQVTVSS | high polyreactivity |
| QVQLVESGGGLVQAGGSLRLSCAASGSTFAIYPMGWYRPAPGKERELVAAITRSGGNTYYADSVKGRFTISRDNAKNTVYLQMNSLKPEDTAVYYCNAETYYWSAYAQYEYWGQGTQVTVSS | high polyreactivity |
| QVQLVESGGGLVQAGGSLRLSCAASGLIFDPNTMGWYRQAPGKERELVAAISSGGDTNYADSVKGRFTISRDNAKNTVYLQMNSQKPEDTAVYYCATDIRFHDPSEYEGVHFEYWGQGTQVTVSS | low polyreactivity |
| QVQLVDSGGGLVQAGGSLRLSCAASGSIYNIYAMGWYRQAPGKERELVATITGIADSTYYADSVKGRFTISRDNAKNTVYLQMNSLKPEDTAVYYCAADKYVAEYDYWGQGTQVTVSS | low polyreactivity |
| QVQLVESGGGLVQAGGSLRLSCAASGRTFFYYAMGWYRQAPGKDRELVAAISWGGGRTYYADSVKGRFTISRDNAKNTVYLQMNSLKPEETAVYYCAAGVYTGQHEYDYWGQGTQVTVSS | low polyreactivity |
| QVPLVESGGGLVQAGGSLRLSCAASGRNYFKYAMGWYRQAPGKERELVATITWRGSSTYYSDSVKGRFTISRDNAKNTVFLQMNSLKPEDTAVYYCAARYLYTDEYWDKFYYWGQGTQVTVSS | high polyreactivity |
| QVQLVESGRGLVQAGGSLRLSCAASGRTFGYYAMGWYRKAPGKERELVAASTYSGARTYYADSVKGRFTISRDNAKNTVYLQRNSLKPEDTAVYYCAADTYYDDGYYYWCQGTQVTVSS | high polyreactivity |
| QVQLVESGGGLVQAGGSRRLSCAASGLTVHDNGMGWYRQAPGQEREVVAAISWSDGTTYYADSVKGRVSISRDNAKNTVYLQMNSLKPEDTAVFYCAAEAYYFWDLVDEDYWGQGTQVTVSS | high polyreactivity |
| HVQLEESGGGLVQAGGSLRLTCAASGSIFYAYAMGWYIPATGKERELVAVISNGGGSTYYADSVKGRFTISRDNSKNSVYLQMNSVKPEDTAVYFCAAVLAESVYYSDYDYWGQGTQVTVSS | low polyreactivity |
| QVQLVESGGGLVQAGGSLRLSCPASGSIFYSYAMGWYRQAPGKERELVAAISWDASTYYADSVKGRFTISRDNAKNTVYLQMNSLKPEYTAVYYCNAVYRVWYAEWSTVGSPHDYWGQGTQVTVSS | low polyreactivity |
| QVQLVESGGGLVQAGGSLRLSCAASGSIFYRYARGWYRQAPGKERELVAAISYNGGRTYYADSVKGRFTISRDNAKNTVYLQMNSLKPEDTAVYYCNAAGRDDAYDYWGQGTQVTVSS | high polyreactivity |
| QVQLVESGGGLVQAGGSLSLSCAASGSIFLRNAMGWYRPAPGKERELVAAITRVGSTYADSVKGRFTISRDNAKNTVYLQMNSLKPEDTAVYYCAAVSGVRSGPWRYDYWGQGTQVTVSS | high polyreactivity |
